# Key:
# [1] = molecular target: T1, PIN574 fully human Id protein (HV4-39 / LV1-40) (human); assay: SPR (BIACORE 2000); mAb captured on anti-mouse surface, fully human Id protein as analyte, 25 C
# T1 construct: Recombinant patient-derived idiotype immunoglobulin used as antigen, fully human form; also called Immunogen (for 20H5); not shown: human immunoglobulin heavy chain constant region, isotype G3 (HCG3); human immunoglobulin lambda light chain constant region (LC)
# Description: (§1) Binding constants were also determined for three of the sequenced clones (3C9, 10H7, and 20H5), as well as for two additional clones (6C9 and 15E1). The association and disassociation rates were measured by surface plasmon resonance using a BIACORE 2000 machine.
# (§2) In addition, based on ELISA results, PIN185 was used as a positive control Id protein for 10H7 and 15E1 and a negative control Id protein for 3C9 and 6C9 and PIN149 was used as a non-binding Id protein for 20H5. Each mAb was captured onto an anti-mouse surface and tested for binding to the fully human Id protein. Following the mAb capture phase of the assay for the (@2 ug/ml), the fully human Id proteins were all diluted to a starting concentration of 250 nM and tested in a three fold dilution series. Each concentration was tested in duplicate. The running buffer contained PBS plus 0.005% tween-20 and 0.1 mg/ml BSA as a carrier. Binding data were collected at 25° C. […] The other data sets all fit well to a single site interaction model.
# [2] = molecular target: T2, PIN149 fully human Id protein (HV3-23 / KV4-1) (human); assay: SPR (BIACORE 2000); mAb captured on anti-mouse surface, fully human Id protein as analyte
# T2 construct: Recombinant patient-derived idiotype immunoglobulin used as antigen; also called PIN149 Id protein; Immunogen (for 3C9, 6C9, 10H7, 15E1); not shown: human immunoglobulin heavy chain constant region, isotype G3 (HCG3); human immunoglobulin kappa light chain constant region (KC)
# Description: as §1, §2
# [3] = molecular target: T1, PIN574 fully human Id protein (HV4-39 / …); assay: ELISA; set-up: key to grade: 0 = <0.5 OD, 1 = 0.5-1.0 OD, 4 = 1-4 OD
# Source text: (§3) Before specificity screening, all of the clonal immunogen-positive hybridoma supernatants were re-screened on the immunogen, a non-family member Id protein, and KLH, if animals were immunized with Id protein that has been conjugated KLH. As described above, this screen identifies HC-specific clones but not mAbs against the light chain constant region. Clones identified positive to the immunogen and KLH were […]. Those found positive to the immunogen but not to the non-family member Id protein or KLH were tittered on the immunogen. In addition to normalizing for different binding affinities and concentrations, each hybridoma supernatant was titered on the fully human form of the Id protein used as the immunogen(s) for the V regions. The titer or dilution resulting in an ELISA absorbance of 2.5 to 3 OD after 30 min. incubation time was then used. Hybridoma specificity was determined by screening against available Id proteins expressing the same HV and KV or LV as well as different HV, KV and LV. The final ELISA results are expressed as follows: 0 (<0.5 OD), 1 (0.5-1.0 OD), or 4 (1-4 OD). Positive hybridoma supernatants are categorized according to specificity: anti-Id, anti-constant region (HC, KC or LC), or V region (HV, KV, LV family or family member).
# (§4) In general, the fully human Id protein or proteins containing the immunogen V regions were coated onto 96-well ELISA plates at 2.5-5 ug/mL in carbonate buffer pH 9.6 and incubated at 4° C. for up to 14 days. On the day of the ELISA, plates were brought to RT and blocked with Tris-Tween-20, pH 7.6 for 15-60 min. at RT. Following a NaCl and Triton X-100 wash, diluted hybridoma cell culture supernatants were incubated overnight at 4° C. Hybridoma supernatant dilutions ranged from 1:2 to 1:25 and were prepared in PBS with 5% BSA. Plates were washed and incubated with HRP-conjugated goat anti-mouse IgG-specific detecting antibody. A chromogenic substrate (TMB) was used to measure the amount of mouse antibody bound to each well. The reaction was stopped at or before 30 minutes with IN H2SO4 and plates were read immediately. Absorbency readings at 450 nm ranging between 0-4 OD and using Molecular Devices plate reader and SOFTMAX PRO software.
# [4] = molecular target: T3, 625; assay: ELISA; set-up: key to grade: 0 = <0.5 OD, 1 = 0.5-1.0 OD, 4 = 1-4 OD
# T3 construct: H4-61 L2-8; also called PIN625
# Source text: as §3, §4
# [5] = molecular target: T4, 552; assay: ELISA; set-up: key to grade: 0 = <0.5 OD, 1 = 0.5-1.0 OD, 4 = 1-4 OD
# T4 construct: H1-18 L2-8; also called PIN552
# Source text: as §3, §4
# [6] = molecular target: T5, 746; assay: ELISA; set-up: key to grade: 0 = <0.5 OD, 1 = 0.5-1.0 OD, 4 = 1-4 OD
# T5 construct: H4-39 L2-8; also called PIN746
# Source text: as §3, §4
# [7] = molecular target: T6, 116; assay: ELISA; set-up: key to grade: 0 = <0.5 OD, 1 = 0.5-1.0 OD, 4 = 1-4 OD
# T6 construct: fully human Id protein; also called PIN116
# Source text: as §3, §4
# [8] = molecular target: T7, 787; assay: ELISA; set-up: key to grade: 0 = <0.5 OD, 1 = 0.5-1.0 OD, 4 = 1-4 OD
# T7 construct: also called PIN787
# Source text: as §3, §4
# [9] = molecular target: T8, 647; assay: ELISA; set-up: key to grade: 0 = <0.5 OD, 1 = 0.5-1.0 OD, 4 = 1-4 OD
# T8 construct: fully human Id protein; also called PIN647
# Source text: as §3, §4
# [10] = molecular target: T9, 559; assay: ELISA; set-up: key to grade: 0 = <0.5 OD, 1 = 0.5-1.0 OD, 4 = 1-4 OD
# T9 construct: H3-15 L2-23; also called PIN559
# Source text: as §3, §4
# [11] = molecular target: T10, 604; assay: ELISA; set-up: key to grade: 0 = <0.5 OD, 1 = 0.5-1.0 OD, 4 = 1-4 OD
# T10 construct: H4-34 L2-8; also called PIN604
# Source text: as §3, §4
# [12] = molecular target: T11, 710; assay: ELISA; set-up: key to grade: 0 = <0.5 OD, 1 = 0.5-1.0 OD, 4 = 1-4 OD
# T11 construct: H1-8 L2-8; also called PIN710
# Source text: as §3, §4
# [13] = molecular target: T12, 662; assay: ELISA; set-up: key to grade: 0 = <0.5 OD, 1 = 0.5-1.0 OD, 4 = 1-4 OD
# T12 construct: fully human Id protein; also called PIN662
# Source text: as §3, §4
# T1 sequence (VH, as listed by the source, chain 1 of 2): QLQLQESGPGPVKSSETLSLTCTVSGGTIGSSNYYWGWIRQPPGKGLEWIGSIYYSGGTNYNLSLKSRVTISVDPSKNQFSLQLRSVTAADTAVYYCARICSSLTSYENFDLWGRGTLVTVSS
# T1 sequence (VL, as listed by the source, chain 2 of 2): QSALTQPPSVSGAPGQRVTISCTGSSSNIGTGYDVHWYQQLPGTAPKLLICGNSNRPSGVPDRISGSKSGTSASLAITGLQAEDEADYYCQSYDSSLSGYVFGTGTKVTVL
# T2 sequence (VH, as listed by the source, chain 1 of 2): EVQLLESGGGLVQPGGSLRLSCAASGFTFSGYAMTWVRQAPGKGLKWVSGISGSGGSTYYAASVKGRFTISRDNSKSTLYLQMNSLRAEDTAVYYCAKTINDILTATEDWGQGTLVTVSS
# T2 sequence (VL, as listed by the source, chain 2 of 2): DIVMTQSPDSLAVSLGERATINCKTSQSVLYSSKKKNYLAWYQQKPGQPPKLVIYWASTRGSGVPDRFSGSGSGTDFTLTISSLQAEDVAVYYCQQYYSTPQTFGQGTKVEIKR
# T12 sequence (heavy, as listed by the source): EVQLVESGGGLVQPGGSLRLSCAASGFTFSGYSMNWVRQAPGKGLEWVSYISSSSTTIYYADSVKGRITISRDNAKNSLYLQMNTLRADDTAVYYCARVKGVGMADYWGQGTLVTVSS
# T8 sequence (VH, as listed by the source, chain 1 of 2): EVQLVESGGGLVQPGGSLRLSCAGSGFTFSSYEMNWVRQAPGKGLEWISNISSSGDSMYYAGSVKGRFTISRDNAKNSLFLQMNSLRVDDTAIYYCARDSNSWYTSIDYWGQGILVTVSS
# T8 sequence (VL, as listed by the source, chain 2 of 2): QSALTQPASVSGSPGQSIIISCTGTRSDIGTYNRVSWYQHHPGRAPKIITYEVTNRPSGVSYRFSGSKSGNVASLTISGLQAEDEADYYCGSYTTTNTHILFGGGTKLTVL
# T6 sequence (VH, as listed by the source, chain 1 of 2): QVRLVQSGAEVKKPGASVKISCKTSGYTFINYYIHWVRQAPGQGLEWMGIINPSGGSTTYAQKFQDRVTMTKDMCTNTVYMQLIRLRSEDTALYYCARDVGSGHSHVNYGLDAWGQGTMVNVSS
# T6 sequence (V domain, as listed by the source, chain 2 of 2): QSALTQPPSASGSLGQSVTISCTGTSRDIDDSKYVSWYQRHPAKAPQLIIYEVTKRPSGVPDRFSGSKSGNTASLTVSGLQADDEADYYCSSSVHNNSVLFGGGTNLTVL
Kd [1],koff [1],kon [1],binding result [2],binding result [3],grade [4],grade [5],grade [6],grade [7],grade [8],binding result [9],grade [10],grade [11],grade [12],grade [13],Binder
1.92 nM,0.000146 s⁻¹,75900 M⁻¹ s⁻¹,no binding,–,–,–,–,–,–,–,–,–,–,–,"mAb clone 20H5 (antibody, V domains shown, Mouse hybridoma mAb, fusion 10 (immunogen fully human PIN574 Id protein)) VH: QVQLKESGPDLVAPSQSLSITCTVSGFSLTSYGVHWVRQPPGKGLEWLVVIWSDGSTTNNSPLKSRLSISKDNSKSQVFLKMNSLQTDDTAMYYCARHWGTTVVDAMDYWGQGTSVTVSS VL: DIQMTQTTSSLSASLGDRVIISCRASQDIRNYLNWYQQKPDGTVKLLIYYTSQLHSGVPSRFSGSGSGTDYSLTINNLSEQEDIATYFCQQYDTLPWTFGGGTKLEIKR"
–,–,–,–,no binding,4,4,4,4,1,no binding,4,4,4,4,"mAb clone 15E8 (antibody, V domains shown, Mouse hybridoma mAb, fusion 16 (immunogen PIN116)) VH: QVQLQQPGAELVMPGASVKMSCKASGYTFTDYWMHWVKQRPGQGLEWIGTIDTSDSYTNYNQKFKGKATLTVDESSSTAYMQLSSLTSEDSAVYYCVRWKKYGNYFFDYWGQGTTLTVSS VL: DIVMTQSHKFMSTSVGDRVSITCKASQDVNTAVAWYQQKPGQSPKLLIYWASTRHTGVPDRFTGSGSGTDFSLTISSVQAEDLGLYYCQQCYSTPYAFGGGTKLEIKR"
